Test results: article doi:10.1101/2020.07.29.226720v1 (biorxiv, 2020)

What was measured:
AthPEPCK1 WT = biological target: T1, AthPEPCK1 WT (Arabidopsis thaliana, UniProt Q9T074); assay: activity with effector, carboxylation direction; type: biochemical; conditions: allosteric activator; 10 mM PEP, 0.13 mM ADP
T1 sequence (Q9T074 2-671): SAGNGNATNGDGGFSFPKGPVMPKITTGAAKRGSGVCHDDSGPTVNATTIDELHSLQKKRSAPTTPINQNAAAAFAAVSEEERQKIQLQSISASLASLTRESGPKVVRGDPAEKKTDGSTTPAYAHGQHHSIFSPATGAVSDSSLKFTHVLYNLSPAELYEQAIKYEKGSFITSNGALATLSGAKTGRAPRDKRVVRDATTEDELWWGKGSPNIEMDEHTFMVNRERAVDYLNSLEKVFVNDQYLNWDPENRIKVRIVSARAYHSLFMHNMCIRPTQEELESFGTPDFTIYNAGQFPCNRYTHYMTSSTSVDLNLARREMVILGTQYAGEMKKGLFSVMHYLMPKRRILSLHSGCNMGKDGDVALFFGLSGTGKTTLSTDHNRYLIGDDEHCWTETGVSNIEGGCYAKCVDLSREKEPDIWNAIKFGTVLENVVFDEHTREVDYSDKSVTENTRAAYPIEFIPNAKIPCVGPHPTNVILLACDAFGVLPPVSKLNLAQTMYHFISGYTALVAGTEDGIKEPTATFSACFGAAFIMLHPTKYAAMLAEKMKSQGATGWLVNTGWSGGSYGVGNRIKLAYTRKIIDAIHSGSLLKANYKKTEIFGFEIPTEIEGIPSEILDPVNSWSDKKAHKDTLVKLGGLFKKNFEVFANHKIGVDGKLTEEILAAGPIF

AthPEPCK1 Δ101 = biological target: T2, AthPEPCK1 Δ101 (Arabidopsis thaliana, UniProt Q9T074); assay: activity with effector, decarboxylation direction; type: biochemical; conditions: allosteric activator; 0.5 mM OAA, 0.3 mM ATP
T2 sequence (Q9T074 102-671): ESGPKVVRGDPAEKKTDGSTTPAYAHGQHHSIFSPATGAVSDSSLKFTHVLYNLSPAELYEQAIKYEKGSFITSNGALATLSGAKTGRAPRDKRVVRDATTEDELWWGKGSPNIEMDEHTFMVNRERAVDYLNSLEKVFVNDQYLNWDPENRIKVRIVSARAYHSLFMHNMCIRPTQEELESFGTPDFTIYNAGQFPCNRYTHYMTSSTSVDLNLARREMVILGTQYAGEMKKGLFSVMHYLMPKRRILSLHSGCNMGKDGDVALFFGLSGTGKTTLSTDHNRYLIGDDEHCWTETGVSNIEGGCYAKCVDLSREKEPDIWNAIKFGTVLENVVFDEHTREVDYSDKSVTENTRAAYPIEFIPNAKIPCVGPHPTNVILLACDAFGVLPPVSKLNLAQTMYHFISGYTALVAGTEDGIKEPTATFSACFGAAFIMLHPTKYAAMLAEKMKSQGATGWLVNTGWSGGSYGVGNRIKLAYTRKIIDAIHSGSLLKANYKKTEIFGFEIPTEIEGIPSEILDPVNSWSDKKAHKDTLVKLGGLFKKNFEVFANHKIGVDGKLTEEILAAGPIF

[1] = substrate: Nc1ncnc2c1ncn2[C@@H]1O[C@H](COP(=O)(O)OP(=O)(O)O)[C@@H](O)[C@H]1O; assay: steady-state kinetics, carboxylation direction; type: biochemical, Arabidopsis thaliana
purified protein = substrate: Nc1ncnc2c1ncn2[C@@H]1O[C@H](COP(=O)(O)OP(=O)(O)OP(=O)(O)O)[C@@H](O)[C@H]1O; assay: purified protein; conditions: 0.5 mM OAA

**Q.** With `O=C(O)C[C@H](O)C(=O)O` [malate] as the molecule, how does the fold activation (AthPEPCK1 WT) read?
**A.** Its fold activation is 2 fold.

**Q.** `O=P(O)(O)OC[C@H]1OC(O)[C@H](O)[C@@H](O)[C@@H]1O` (stereo partly shown) [Glc6P] was tested. Which fold activation (AthPEPCK1 Δ101) did it give?
**A.** The fold activation was 2 fold.

B1: AthPEPCK1 Δ101 (Arabidopsis thaliana) (protein)
chain: T2 sequence (Q9T074 102-671)
**Q.** B1 was tested. Which Km ([1]; 15 mM PEP) did it give?
**A.** Its Km is 57 ± 6 µM.

**Q.** What about the kcat ([1]; 15 mM PEP) of the same molecule?
**A.** Its kcat is 3.01 ± 0.08 s⁻¹.

**Q.** What about the Km (purified protein) of the same molecule?
**A.** Its Km is 80 ± 10 µM.

**Q.** And the kcat (purified protein)?
**A.** Its kcat is 3.9 ± 0.2 s⁻¹.

B2: AthPEPCK1 Δ19 (Arabidopsis thaliana) (protein)
chain: GPVMPKITTGAAKRGSGVCHDDSGPTVNATTIDELHSLQKKRSAPTTPINQNAAAAFAAVSEEERQKIQLQSISASLASLTRESGPKVVRGDPAEKKTDGSTTPAYAHGQHHSIFSPATGAVSDSSLKFTHVLYNLSPAELYEQAIKYEKGSFITSNGALATLSGAKTGRAPRDKRVVRDATTEDELWWGKGSPNIEMDEHTFMVNRERAVDYLNSLEKVFVNDQYLNWDPENRIKVRIVSARAYHSLFMHNMCIRPTQEELESFGTPDFTIYNAGQFPCNRYTHYMTSSTSVDLNLARREMVILGTQYAGEMKKGLFSVMHYLMPKRRILSLHSGCNMGKDGDVALFFGLSGTGKTTLSTDHNRYLIGDDEHCWTETGVSNIEGGCYAKCVDLSREKEPDIWNAIKFGTVLENVVFDEHTREVDYSDKSVTENTRAAYPIEFIPNAKIPCVGPHPTNVILLACDAFGVLPPVSKLNLAQTMYHFISGYTALVAGTEDGIKEPTATFSACFGAAFIMLHPTKYAAMLAEKMKSQGATGWLVNTGWSGGSYGVGNRIKLAYTRKIIDAIHSGSLLKANYKKTEIFGFEIPTEIEGIPSEILDPVNSWSDKKAHKDTLVKLGGLFKKNFEVFANHKIGVDGKLTEEILAAGPIF
**Q.** Which Km ([1]; 5 mM PEP) does the source give for B2 here?
**A.** The Km was 40 ± 1 µM.

**Q.** What about the kcat ([1]; 5 mM PEP) of the same molecule?
**A.** The kcat was 2.64 ± 0.06 s⁻¹.

**Q.** And the Km (purified protein)?
**A.** The Km was 29 ± 6 µM.

**Q.** And the kcat (purified protein)?
**A.** The kcat was 3.38 ± 0.06 s⁻¹.
